# B1: Tub4 (yeast gamma-tubulin), wild type, untagged [S. cerevisiae] / Spc110 [S. cerevisiae (endogenous in yeast cells)] (parent)
# chain 1: MGGEIITLQAGQCGNHVGKFLWSQLAKEHAIGTDGLSQLPDSSTERDDDTKPFFRENSRNKFTPRAIMMDSEPSVIADVENTFRGFFDPRNTWVASDGASAGNSWANGYDIGTRNQDDILNKIDKEIDSTDNFEGFQLLHSVAGGTGSGLGSNLLEALCDRYPKKILTTYSVFPARSSEVVVQSYNTILALRRLIEDSDATVVFDNASLLNISGKVFRNPNIDLQHTNQLISTIISSVTNSIRFPSYMYSSMSSIYSTLIPSPELHFLSPSFTPFTSDYIHDDIAHKGHSSYDVMLDLLDPSNSLVSTAMNNPTYFNVYNTIIGNVEPRQISRAMTKLQQRIKFPSWSSSAMHVNIGRRSPYLPLQPNENEVSGMMLSNMSTVVNVFENACNTFDKVFAKGAFLNNYNVGDLFQSMQNVQDEFAESREVVQSLMEDYVAAEQDSYLDDVLVDDENMVGELEEDLDADGDHKLV
# chain 2: MDEASHLPNGSLKNMEFTPVGFIKSKRNTTQTQVVSPTKVPNANNGDENEGPVKKRQRRSIDDTIDSTRLFSEASQFDDSFPEIKANIPPSPRSGNVDKSRKRNLIDDLKKDVPMSQPLKEQEVREHQMKKERFDRALESKLLGKRHITYANSDISNKELYINEIKSLKHEIKELRKEKNDTLNNYDTLEEETDDLKNRLQALEKELDAKNKIVNSRKVDDHSGCIEEREQMERKLAELERKLKTVKDQVLELENNSDVQSLKLRSKEDELKNLMNELNELKSNAEEKDTQLEFKKNELRKRTNELNELKIKSDEMDLQLKQKQNESKRLKDELNELETKFSENGSQSSAKENELKMLKNKIAELEEEISTKNSQLIAKEGKLASLMAQLTQLESKLNQRDSQLGSREEELKKTNDKLQKDIRIAREETVSKDERIIDLQKKVKQLENDLFVIKKTHSESKTITDNELESKDKLIKILENDLKVAQEKYSKMEKELKEREFNYKISESKLEDEKTTLNEKISNLAAENSQLKNKIEDNSTATHHMKENYEKQLESLRKDIEEYKESAKDSEDKIEELKIRIAENSAKVSEKRSKDIKQKDEQISDLTQNLKLQEDEISSLKSIIDRYKKDFNQLKSEQSNIQHDLNLQILNLENKLIESEDELKSLRDSQKIEIENWKRKYNNLSLENDRLLTEKESASDKEREISILNRKLDEMDKEKWNLQESKEKYKRELQKVITANDRLRREKEELNENSNNIRIMEDKMTRIKKNYLSEITSLQEENRRLEERLILNERRKDNDSTMQLNDIISYYKLKYHSEVRHNNDLKVINDYLNKVLALGTRRLRLDTRKGEHSLNISLPDDDELDRDYYNSHVYTRYHDYEYPLRFNLNRRGPYFERRLSFKTVALLVLACVRMKRIAFYRRSDDNRLRILRDRIESSSGRISW
# Variants of: B1
# Test: co-immunoprecipitation (anti-HA IP of Spc97-3HA), quantified immunoblot
# Conditions: with Spc110 [S. cerevisiae (endogenous in yeast cells)], Indirect: Spc110 recovered in Spc97-3HA IP from tub4-S100E cells, TUB4-AID SPC97-3HA cells, IAA for 2 h at 30°C, normalized to precipitated Spc97-3HA, read off a plot
row,ratio to parent [RI],Variant
1,0.76,chain 1 S100E

# Same assay, conditions: with Spc110 [S. cerevisiae (endogenous in yeast cells)]; Indirect: Spc110 recovered in Spc97-3HA IP from tub4-S74E cells; TUB4-AID SPC97-3HA cells, IAA for 2 h at 30°C; normalized to precipitated Spc97-3HA; parent: 1; read off a plot
row,ratio to parent [RI],Variant
1,1.3,chain 1 S74E

# Same assay, conditions: with Spc110 [S. cerevisiae (endogenous in yeast cells)], Indirect: Spc110 recovered in Spc97-3HA IP from tub4-S360D cells, TUB4-AID SPC97-3HA cells, IAA for 2 h at 30°C, normalized to precipitated Spc97-3HA, read off a plot
row,ratio to parent [RI],Variant
1,0.28,chain 1 S360D
